Reference: patent US20250051465A1 (published 2025)

T1: human LEPR extracellular domain expressed with a C-terminal mouse IgG2a Fc tag (hLEPR.mFc) (human)
T1 construct: also called dimeric human LEPR
T1 chain: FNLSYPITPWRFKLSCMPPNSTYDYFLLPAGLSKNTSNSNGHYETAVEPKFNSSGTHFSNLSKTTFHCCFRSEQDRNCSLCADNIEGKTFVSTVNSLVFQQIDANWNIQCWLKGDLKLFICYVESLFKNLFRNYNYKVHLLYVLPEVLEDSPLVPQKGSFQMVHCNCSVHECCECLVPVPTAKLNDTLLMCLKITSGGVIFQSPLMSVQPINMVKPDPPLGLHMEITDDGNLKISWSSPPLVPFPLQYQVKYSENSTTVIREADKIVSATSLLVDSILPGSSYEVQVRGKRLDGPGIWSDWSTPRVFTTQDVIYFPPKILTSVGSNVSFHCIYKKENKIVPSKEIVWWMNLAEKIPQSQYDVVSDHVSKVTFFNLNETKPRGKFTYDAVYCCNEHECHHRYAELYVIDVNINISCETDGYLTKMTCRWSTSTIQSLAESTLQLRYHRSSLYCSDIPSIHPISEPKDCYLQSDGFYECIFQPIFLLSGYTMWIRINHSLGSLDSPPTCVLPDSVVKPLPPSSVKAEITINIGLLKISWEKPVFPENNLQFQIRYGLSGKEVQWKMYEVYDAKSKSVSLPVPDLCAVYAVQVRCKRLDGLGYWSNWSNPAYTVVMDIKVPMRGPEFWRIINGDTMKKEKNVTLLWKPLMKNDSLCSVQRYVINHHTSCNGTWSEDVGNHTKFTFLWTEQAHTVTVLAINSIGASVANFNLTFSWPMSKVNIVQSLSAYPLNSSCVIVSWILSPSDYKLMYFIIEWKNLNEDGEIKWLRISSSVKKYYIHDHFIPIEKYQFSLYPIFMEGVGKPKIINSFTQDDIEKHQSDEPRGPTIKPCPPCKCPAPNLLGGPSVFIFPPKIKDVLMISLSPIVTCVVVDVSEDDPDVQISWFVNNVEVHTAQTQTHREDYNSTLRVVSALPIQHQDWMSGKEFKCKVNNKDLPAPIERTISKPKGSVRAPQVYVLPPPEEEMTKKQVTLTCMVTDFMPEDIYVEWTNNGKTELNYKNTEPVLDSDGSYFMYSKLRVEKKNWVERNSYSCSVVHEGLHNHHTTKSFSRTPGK

B1: H4H18445P2 (antibody, human IgG4, V domains shown)
VH: QVQLQESGPGLVKPSQTLSLTCTVSGGSISSGGDYWSWIRQLPGKGLEWIGYIYYSGSAYYNPSLKSRGTISIDTSKNQFSLKLTSVTAADTAVYFCVKLRFLEWFLGGWFGPWGQGTLVTVSS
VL: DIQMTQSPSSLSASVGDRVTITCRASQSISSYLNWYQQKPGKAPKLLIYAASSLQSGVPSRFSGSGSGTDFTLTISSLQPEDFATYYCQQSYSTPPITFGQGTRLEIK
notes: Fully human antibody with human IgG4 Fc (H4H prefix)
B2: H4H16650P2 (antibody, human IgG4, V domains shown)
VH: QVQLVESGGGVVQPGKSLRLSCVASGFTFSSDAMYWVRQAPGKGLEWVAVIYYDGNYQYYEDSVKGRFTISRDNSQNTLDLQMNSLRVDDTAVYFCARLNWDYWYLDLWGRGTLVTVSS
VL: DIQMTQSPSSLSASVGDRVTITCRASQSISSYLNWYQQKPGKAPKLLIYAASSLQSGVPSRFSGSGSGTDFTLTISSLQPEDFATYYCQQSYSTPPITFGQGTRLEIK
notes: as for B1
B3: H4H18438P2 (antibody, human IgG4, V domains shown)
VH: QVQLVESGGGVVQPGRSLRLSCAASGFSFNTYGMHWVRQAPGKGLEWVTIIWYDGSIKYYADSVKGRFTISRDNSKNTLYLQMNSLRAEDTAVYYCARGGYSGYLYFDYWGQGTLVTVSS
VL: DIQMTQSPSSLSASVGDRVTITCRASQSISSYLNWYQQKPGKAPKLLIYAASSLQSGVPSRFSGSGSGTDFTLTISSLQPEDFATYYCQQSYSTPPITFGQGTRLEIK
notes: as for B1
B4: H4H18446P2 (antibody, human IgG4, V domains shown)
VH: EVQLVESGGGLVQPGGSLRLSCAASGFTFSNYGMTWVRQAPGKGLEWVSAITGGGGSTYYSNSVKGRFTISRDNSKNTVYLRMNSVRAEDTAVYYCAKYKWNFVDDWGQGTTVTVSS
VL: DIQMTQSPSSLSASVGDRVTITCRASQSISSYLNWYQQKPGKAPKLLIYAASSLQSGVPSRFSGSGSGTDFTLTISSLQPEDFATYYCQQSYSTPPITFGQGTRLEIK
notes: as for B1
B5: H4H18449P2 (antibody, human IgG4, V domains shown)
VH: EVQLVESGGGLVQPGGSLRLSCVASGFTFNKYDMHWVRQTTGKGLEWVSGIDTDGDTYYPGSVKGRFTISRENAENSLYLQMNGLRVGDTAVYYCARWPWSGFYGAFDIWGQGTMVTVSS
VL: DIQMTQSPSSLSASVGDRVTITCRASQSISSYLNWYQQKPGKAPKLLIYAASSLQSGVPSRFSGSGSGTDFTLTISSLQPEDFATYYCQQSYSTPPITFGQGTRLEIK
notes: as for B1
B6: H4H18417P2 (antibody, human IgG4, V domains shown)
VH: QVQLVESGGGVVQPGRSLRLSCAASGFTFSTYGMHWVRQAPGKGLEWVSVISYDESNKYYADSVKGRFTISRDNSKNALYLQMNSLRNEDTAVYYCARDRPFGLVTGWFDPWGQGTLVTVSS
VL: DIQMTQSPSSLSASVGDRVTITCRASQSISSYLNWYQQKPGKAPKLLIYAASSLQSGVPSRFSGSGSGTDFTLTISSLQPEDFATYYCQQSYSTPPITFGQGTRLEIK
notes: as for B1

Molecular target: T1, human LEPR extracellular domain …
Experiment: SPR, captured mAb, 25C
Procedure: (§1) Equilibrium dissociation constants (KD values) for LEPR binding to purified anti-LEPR monoclonal antibodies were determined using a real-time surface plasmon resonance biosensor using a Biacore 4000 instrument. All binding studies were performed in 10 mM HEPES, 150 mM NaCl, 3 mM EDTA, and 0.05% v/v Surfactant Tween-20, pH 7.4 (HBS-ET) running buffer at 25° C. and 37° C. The Biacore sensor surface was first derivatized by amine coupling with a monoclonal mouse anti-human Fc antibody (GE, #BR-1008-39) to capture anti-LEPR monoclonal antibodies. […] Kinetic association (kₐ) and dissociation (kd) rate constants were determined by fitting the real-time binding sensorgrams to a 1:1 binding model with mass transport limitation using Scrubber 2.0c curve-fitting software. Binding dissociation equilibrium constants (KD) and dissociative half-lives (t½) were calculated from the kinetic rate constants as: […]

100 nM hLEPR-mFc Bound (RU) | Kd | koff | kon | t½ | Binder
76 RU | 4.03 nM | 0.000492 s⁻¹ | 122000 M⁻¹ s⁻¹ | 23 min | B1
102 RU | 0.785 nM | 8.32e-05 s⁻¹ | 106000 M⁻¹ s⁻¹ | 139 min | B2
51 RU | 4.7 nM | 0.000244 s⁻¹ | 51900 M⁻¹ s⁻¹ | 47 min | B3
20 RU | 6.48 nM | 0.000208 s⁻¹ | 32000 M⁻¹ s⁻¹ | 56 min | B4
116 RU | 0.964 nM | 6.82e-05 s⁻¹ | 70500 M⁻¹ s⁻¹ | 169 min | B5
90 RU | 4.04 nM | 0.000563 s⁻¹ | 140000 M⁻¹ s⁻¹ | 21 min | B6

Molecular target: T2, human LEPR extracellular domain expressed with a C-terminal myc-myc-hexahistidine tag (hLEPR.mmh) (human, UniProt P48357 22-839)
T2 construct: also called human LEPR-MMH; monomeric human LEPR
Experiment: SPR, captured mAb, 37C
Procedure: as §1

100 nM hLEPR-MMH Bound (RU) | Kd | koff | kon | t½ | Binder
38 RU | 326 nM | 0.0168 s⁻¹ | 51300 M⁻¹ s⁻¹ | 0.7 min | B1
77 RU | 19.8 nM | 0.000958 s⁻¹ | 48500 M⁻¹ s⁻¹ | 12 min | B2
32 RU | 170 nM | 0.00576 s⁻¹ | 33800 M⁻¹ s⁻¹ | 2 min | B3
21 RU | 121 nM | 0.00256 s⁻¹ | 21200 M⁻¹ s⁻¹ | 4.5 min | B4
73 RU | 20.7 nM | 0.000815 s⁻¹ | 39400 M⁻¹ s⁻¹ | 14 min | B5
22 RU | 233 nM | 0.018 s⁻¹ | 77000 M⁻¹ s⁻¹ | 0.6 min | B6

Molecular target: T3, Macaca fascicularis LEPR extracellular domain expressed with a C-terminal myc-myc-hexahistidine tag … (Macaca fascicularis, UniProt Q9MYL0 22-837 (rhesus entry))
T3 construct: also called mfLEP.MMH
Experiment: SPR, captured mAb, 37C
Procedure: as §1

100 nM mfLEPR.MMH Bound (RU) | Kd | koff | kon | t½ | Binder
48 RU | 264 nM | 0.019 s⁻¹ | 71700 M⁻¹ s⁻¹ | 0.6 min | B1
134 RU | 5.76 nM | 0.0007 s⁻¹ | 122000 M⁻¹ s⁻¹ | 16 min | B2
30 RU | 140 nM | 0.00354 s⁻¹ | 25300 M⁻¹ s⁻¹ | 3.3 min | B4
28 RU | 217 nM | 0.0263 s⁻¹ | 122000 M⁻¹ s⁻¹ | 0.4 min | B6

Molecular target: T1, human LEPR extracellular domain …
Experiment: SPR, captured mAb, 37C
Procedure: as §1

100 nM hLEPR-mFc Bound (RU) | Kd | koff | kon | t½ | Binder
104 RU | 3.89 nM | 0.000608 s⁻¹ | 156000 M⁻¹ s⁻¹ | 19 min | B1
145 RU | 1.79 nM | 0.00028 s⁻¹ | 157000 M⁻¹ s⁻¹ | 41 min | B2
82 RU | 8.53 nM | 0.000598 s⁻¹ | 70200 M⁻¹ s⁻¹ | 19 min | B3
34 RU | 12.8 nM | 0.000548 s⁻¹ | 42700 M⁻¹ s⁻¹ | 21 min | B4
148 RU | 1.26 nM | 0.000168 s⁻¹ | 133000 M⁻¹ s⁻¹ | 69 min | B5
111 RU | 5.64 nM | 0.00105 s⁻¹ | 185000 M⁻¹ s⁻¹ | 11 min | B6

Molecular target: mouse LEPR extracellular domain expressed with a C-terminal myc-myc-hexahistidine tag (mLEPR.mmh) (mouse, UniProt P48356 22-839)
Experiment: SPR, captured mAb, 25C and 37C

Chain of mouse LEPR extracellular domain expressed with a C-terminal myc-myc-hexahistidine tag (mLEPR.mmh) (P48356 other isoform, or with tags, fused parts or gaps): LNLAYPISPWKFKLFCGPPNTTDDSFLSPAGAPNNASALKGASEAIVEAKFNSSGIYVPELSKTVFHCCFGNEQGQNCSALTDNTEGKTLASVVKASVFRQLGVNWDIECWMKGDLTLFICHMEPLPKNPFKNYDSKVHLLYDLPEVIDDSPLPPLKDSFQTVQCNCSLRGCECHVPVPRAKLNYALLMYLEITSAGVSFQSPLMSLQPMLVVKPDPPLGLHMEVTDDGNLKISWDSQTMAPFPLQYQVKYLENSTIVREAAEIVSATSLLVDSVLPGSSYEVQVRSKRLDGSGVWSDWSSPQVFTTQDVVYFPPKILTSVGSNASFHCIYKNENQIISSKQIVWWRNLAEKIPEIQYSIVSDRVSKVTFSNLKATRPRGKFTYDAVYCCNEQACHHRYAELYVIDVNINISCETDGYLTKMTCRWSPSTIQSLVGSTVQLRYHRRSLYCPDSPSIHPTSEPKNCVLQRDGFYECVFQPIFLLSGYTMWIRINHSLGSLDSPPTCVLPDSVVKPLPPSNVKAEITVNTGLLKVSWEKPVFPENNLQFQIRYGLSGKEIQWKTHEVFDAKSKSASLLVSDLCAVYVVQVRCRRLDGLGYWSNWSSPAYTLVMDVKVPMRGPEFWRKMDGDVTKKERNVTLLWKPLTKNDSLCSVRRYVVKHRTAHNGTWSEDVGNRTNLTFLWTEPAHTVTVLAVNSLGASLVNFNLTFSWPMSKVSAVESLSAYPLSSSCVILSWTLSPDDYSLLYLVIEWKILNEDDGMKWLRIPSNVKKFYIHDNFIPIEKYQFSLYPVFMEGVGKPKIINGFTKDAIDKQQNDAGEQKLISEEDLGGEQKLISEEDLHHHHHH

binding result | Binder
no binding | B1
no binding | B2
no binding | B3
no binding | B4
no binding | B5
no binding | B6

Molecular target: rat LEPR extracellular domain expressed with a C-terminal myc-myc-hexahistidine tag (rLEPR.mmh) (rat, UniProt Q62959 22-839)
Experiment: SPR, captured mAb, 25C and 37C

Chain of rat LEPR extracellular domain expressed with a C-terminal myc-myc-hexahistidine tag (rLEPR.mmh) (Q62959 other isoform, or with tags, fused parts or gaps): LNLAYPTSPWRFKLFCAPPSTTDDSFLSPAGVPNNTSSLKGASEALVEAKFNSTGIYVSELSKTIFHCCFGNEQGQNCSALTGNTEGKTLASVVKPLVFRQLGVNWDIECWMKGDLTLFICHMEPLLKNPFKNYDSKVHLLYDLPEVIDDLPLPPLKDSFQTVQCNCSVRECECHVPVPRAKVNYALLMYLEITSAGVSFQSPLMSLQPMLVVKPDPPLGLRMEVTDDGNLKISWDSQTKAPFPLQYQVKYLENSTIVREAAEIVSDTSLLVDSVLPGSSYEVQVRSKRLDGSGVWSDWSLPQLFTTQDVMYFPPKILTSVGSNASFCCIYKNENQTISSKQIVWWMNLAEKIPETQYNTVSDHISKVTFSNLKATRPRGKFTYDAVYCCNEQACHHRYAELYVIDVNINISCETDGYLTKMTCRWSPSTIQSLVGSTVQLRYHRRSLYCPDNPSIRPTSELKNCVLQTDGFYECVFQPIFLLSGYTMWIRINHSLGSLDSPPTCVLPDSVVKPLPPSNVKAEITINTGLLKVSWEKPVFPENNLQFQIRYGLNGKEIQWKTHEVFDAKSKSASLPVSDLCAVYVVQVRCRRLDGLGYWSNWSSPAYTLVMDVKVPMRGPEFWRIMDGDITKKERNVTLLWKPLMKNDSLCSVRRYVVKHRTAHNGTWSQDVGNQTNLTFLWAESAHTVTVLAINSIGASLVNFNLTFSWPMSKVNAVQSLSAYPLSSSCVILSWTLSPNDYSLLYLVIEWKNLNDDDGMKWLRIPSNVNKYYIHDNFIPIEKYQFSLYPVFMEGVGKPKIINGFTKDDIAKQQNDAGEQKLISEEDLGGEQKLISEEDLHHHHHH

binding result | Binder
no binding | B1
no binding | B2
no binding | B3
no binding | B4
no binding | B5
no binding | B6

Molecular target: T4, human LEPR CRH1 (D1,D2,D3)-MMH (human, UniProt P48357 22-427, limits assumed)
T4 construct: domain: CRH1-Ig (D1,D2,D3); Transiently expressed, captured from supernatant on anti-myc beads; also called CRH1-Ig (D1, D2, D3)
Experiment: Luminex, myc-captured LEPR domain
Procedure: (§2) Aliquots of microspheres with immobilized anti-myc monoclonal antibodies, prepared as described above, were added individually to 1 mL of the each of these protein supernatants. The microspheres were gently mixed, incubated for two hours at 25° C., washed twice with 1 mL of DBPS, centrifuged to remove the supernatant and finally resuspended in 1 mL of DPBS buffer. Forty-eight μL of anti-myc IgG coupled microspheres from individual reactions with full length human LEPR and with each of the human LEPR domain proteins were withdrawn and mixed together in 3.6 mL of PBS+20 mg/mL BSA+0.05% sodium azide (blocking buffer).
(§3) From this mixed pool, 75 μL of microspheres were plated per well on a 96 well filter plate (Millipore, Cat. No: MSBVN1250) and mixed with 25 μL of individual anti-human LEPR monoclonal antibodies (0.5 or 5 µg/mL), incubated for two hours at 25° C. and then washed twice with 200 μL of DPBS with 0.05% Tween 20 (washing buffer). […] After 30 minutes, the samples were washed twice with 200 μL of washing buffer and resuspended in 150 μL of wash buffer. The Median Fluorescence intensity (MFI) of the microspheres was measured in a Luminex Analyzer.

MFI | Binder
22 MFI | B1
2560 MFI | B2
6570 MFI | B3
2060 MFI | B5
3330 MFI | B6

Molecular target: T5, human LEPR CRH2-MMH (human, UniProt P48357 428-634, limits assumed)
T5 construct: domain: CRH2; Transiently expressed, captured from supernatant on anti-myc beads
Experiment: Luminex, myc-captured LEPR domain
Procedure: as §2, §3

T5 sequence (P48357 other isoform, or with tags, fused parts or gaps limits assumed): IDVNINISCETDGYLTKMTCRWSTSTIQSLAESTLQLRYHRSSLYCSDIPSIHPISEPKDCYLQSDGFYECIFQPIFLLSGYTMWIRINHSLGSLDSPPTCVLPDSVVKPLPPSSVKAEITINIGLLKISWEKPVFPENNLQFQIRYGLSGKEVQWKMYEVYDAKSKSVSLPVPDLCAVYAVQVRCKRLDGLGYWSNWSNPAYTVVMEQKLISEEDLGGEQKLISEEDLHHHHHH

MFI | Binder
17 MFI | B1
16 MFI | B2
165 MFI | B3
65 MFI | B4
15 MFI | B5
39 MFI | B6
